Assay results as given in patent US20210338751A1 (LUMEN BIOSCIENCE, published 2021).

B1: anti-TcdB VHH C6 (VHH)
VHH: VQLVESGGGLVQAGESLRLSCVVSESIFRINTMGWYRQTPGKQREVVARITLRNSTTYADSVKGRFTISRDDAKNTLYLKMDSLKPEDTAVYYCHRYPLIFRNSPYWGQGTQVTVSS
B2: 5D+E3+7F (other)
VHH 5D: QVQLVESGGGLVQPGGSLRLSCEASGFTLDYYGIGWFRQPPGKEREAVSYISASARTILYADSVKGRFTISRDNAKNAVYLQMNSLKREDTAVYYCARRRFSASSVNRWLADDYDVWGRGTQVAVSSEPKTPKPQ
VHH E3: QVQLVESGGGLVQTGGSLRLSCASSGSIAGFETVTWSRQAPGKSLQWVASMTKTNNEIYSDSVKGRFIISRDNAKNTVYLQMNSLKPEDTGVYFCKGPELRGQGIQVTVSSEPKTPKPQ
VHH 7F: DVQLQASGGGLVQAGGSLRLSCVASARTFSSYAMGWFRQAPGKEREFVAAISWSGASTDYADSVKGRFTISRDNAKKTVYLQMNTLKPEDTAVYYCAAHHITPTGSYYYSEPLPVDMVYDYWGQGTQVTVSSEPKTKTTTSGR
B3: 5D+E3+2D (other)
VHH 5D: QVQLVESGGGLVQPGGSLRLSCEASGFTLDYYGIGWFRQPPGKEREAVSYISASARTILYADSVKGRFTISRDNAKNAVYLQMNSLKREDTAVYYCARRRFSASSVNRWLADDYDVWGRGTQVAVSSEPKTPKPQ
VHH E3: QVQLVESGGGLVQTGGSLRLSCASSGSIAGFETVTWSRQAPGKSLQWVASMTKTNNEIYSDSVKGRFIISRDNAKNTVYLQMNSLKPEDTGVYFCKGPELRGQGIQVTVSSEPKTPKPQ
VHH 2D: QVKLQQSGGGLVQAGGSLRLSCAASGTFSRYAMGWFRQAPGKEREFVAAINWTGGSTYYADSVKGRFTISGDNAKNTVYLQMNSLKPGDTAVYYCAAEVHPGDYGLTYMQSQYEYDYWGQGTQVTVSSEPKTPKPTTSGR
B4: anti-TcdB VHH E3 (VHH)
VHH: QVQLVESGGGLVQTGGSLRLSCASSGSIAGFETVTWSRQAPGKSLQWVASMTKTNNEIYSDSVKGRFIISRDNAKNTVYLQMNSLKPEDTGVYFCKGPELRGQGIQVTVSSEPKTPKPQ
B5: E3+7F+2D (other)
VHH E3: QVQLVESGGGLVQTGGSLRLSCASSGSIAGFETVTWSRQAPGKSLQWVASMTKTNNEIYSDSVKGRFIISRDNAKNTVYLQMNSLKPEDTGVYFCKGPELRGQGIQVTVSSEPKTPKPQ
VHH 7F: DVQLQASGGGLVQAGGSLRLSCVASARTFSSYAMGWFRQAPGKEREFVAAISWSGASTDYADSVKGRFTISRDNAKKTVYLQMNTLKPEDTAVYYCAAHHITPTGSYYYSEPLPVDMVYDYWGQGTQVTVSSEPKTKTTTSGR
VHH 2D: QVKLQQSGGGLVQAGGSLRLSCAASGTFSRYAMGWFRQAPGKEREFVAAINWTGGSTYYADSVKGRFTISGDNAKNTVYLQMNSLKPGDTAVYYCAAEVHPGDYGLTYMQSQYEYDYWGQGTQVTVSSEPKTPKPTTSGR
B6: 5D+7F+5E (other)
VHH 5D: QVQLVESGGGLVQPGGSLRLSCEASGFTLDYYGIGWFRQPPGKEREAVSYISASARTILYADSVKGRFTISRDNAKNAVYLQMNSLKREDTAVYYCARRRFSASSVNRWLADDYDVWGRGTQVAVSSEPKTPKPQ
VHH 7F: DVQLQASGGGLVQAGGSLRLSCVASARTFSSYAMGWFRQAPGKEREFVAAISWSGASTDYADSVKGRFTISRDNAKKTVYLQMNTLKPEDTAVYYCAAHHITPTGSYYYSEPLPVDMVYDYWGQGTQVTVSSEPKTKTTTSGR
VHH 5E: VQLVESGGGLVQAGGSLRLSCAASGLMFGAMTMGWYRQAPGKEREMVAYITAGGTESYSESVKGRFTISRINANNMVYLQMTNLKVEDTAVYYCNAHNFWRTSRNWGQGTQVTVSSEPKTPKP
B7: Nano26-MBP (VHH, not shown: large carriers)
VHH: QVQLQESGGGLVQPGGSLRLSCTAPRIIFFMYDVGWYRQAPEKQRELVAQINSDVSTKYADSVKGRFTISRDNAKRTVYLQMNDLKPEDAAVYYCNVRRASADYWGQGTQVTVSS
notes: also called SP834
B8: anti-TcdB VHH B12 (VHH)
VHH: VQLVESGGGLVQAGDSLTLSCAASESTFNTFSMAWFRQAPGKEREYVAAFSRSGGTTNYADSVKGRATISTDNAKNTVYLHMNSLKPEDTAVYFCAADRPAGRAYFQSRSYNYWGQGTQVTVSS
B9: anti-TcdB VHH 5D (VHH)
VHH: QVQLVESGGGLVQPGGSLRLSCEASGFTLDYYGIGWFRQPPGKEREAVSYISASARTILYADSVKGRFTISRDNAKNAVYLQMNSLKREDTAVYYCARRRFSASSVNRWLADDYDVWGRGTQVAVSS
B10: Nano94-TxnA (VHH)
VHH: QVQLQESGGGLVQAGGSLRLSCAASGRMFSINSMGWYRQAPGKERELVATISEAGTTTYADSVRGRFTIARDNAKNTVYLQMNSLNPEDTAVYYCNAYIQLDSTIWFRAYWGQGTQVTVSS
notes: also called SP835
B11: Nano94-MBP (VHH)
VHH: QVQLQESGGGLVQAGGSLRLSCAASGRMFSINSMGWYRQAPGKERELVATISEAGTTTYADSVRGRFTIARDNAKNTVYLQMNSLNPEDTAVYYCNAYIQLDSTIWFRAYWGQGTQVTVSS
notes: also called SP836
B12: anti-TcdB VHH 7F (VHH)
VHH: QVQLVESGGGLVEAGGSLRLSCVVTGSSFSTSTMAWYRQPPGKQREWVASFTSGGAIKYTDSVKGRFTMSRDNAKKMTYLQMENLKPEDTAVYYCALFINAVSGSSWGRGTQVTVSS

Tests used:
[1] = molecular target: T1, Clostridium difficile toxin B (TcdB) (Clostridium difficile, UniProt P18177 2-2366); test: method not stated
T1 construct: also called TcdB toxin

[2] = molecular target: T1, Clostridium difficile toxin B (TcdB); test: cell-based or functional assay
[3] = molecular target: T2, recombinant HuNoV GII.2 P domain (Human Norovirus (HuNoV) GII.2); test: BLI, biotin tagged GII.2 P domain at 100 nM as antigen
T2 construct: domain: Protrusion (P) domain

[4] = molecular target: T3, recombinant HuNoV GII.10 P domain (Human Norovirus (HuNoV) GII.10); test: ELISA on recombinant HuNoV GII.10 P domain, Spirulina-expressed Ni-NTA purified protein stored at 4 C
T3 construct: domain: Protrusion (P) domain

[5] = molecular target: T3, recombinant HuNoV GII.10 P domain; test: ELISA on recombinant HuNoV GII.10 P domain, Spirulina-expressed Ni-NTA purified protein after freeze-drying
[6] = molecular target: T1, Clostridium difficile toxin B (TcdB); test: assay not given; unlabelled list of VHH names and values at the right of the sheet, the same values stand under KD in Table 6 of the text, which prints the unit of 5D as mM
[7] = molecular target: T4, recombinant HuNoV GI.1 P domain (Human Norovirus (HuNoV) GI.1); test: ELISA on recombinant GI.1 P domain
T4 construct: domain: Protrusion (P) domain

[8] = molecular target: T5, GI.1 VLPs (human norovirus genotype GI.1); test: blocking of GI.1 VLP binding to pig gastric mucin (HBGA)
T5 construct: virus-like particle

[9] = molecular target: T4, recombinant HuNoV GI.1 P domain; test: ELISA on recombinant HuNoV GI.1 P domain, Spirulina-expressed Ni-NTA purified protein stored at 4 C
[10] = molecular target: T4, recombinant HuNoV GI.1 P domain; test: ELISA on recombinant HuNoV GI.1 P domain, Spirulina-expressed Ni-NTA purified protein after freeze-drying

Binder | Kd [1] | Adherence Score at TcdB 0.00001 ng/ml, VHH 100 ng/ml total; none: 7 [2] | Adherence Score at TcdB 0.0001 ng/ml, VHH 100 ng/ml total; none: 7 [2] | Adherence Score at TcdB 0.001 ng/ml, VHH 100 ng/ml total; none: 6 [2] | Adherence Score at TcdB 0.01 ng/ml, VHH 100 ng/ml total; none: 5 [2] | Adherence Score at TcdB 0.1 ng/ml, VHH 100 ng/ml total; none: 2 [2] | Adherence Score at TcdB 1 ng/ml, VHH 100 ng/ml total; none: 1 [2] | Adherence Score at TcdB 10 ng/ml, VHH 100 ng/ml total; none: 1 [2] | also measured
B1 | 0.89 nM | – | – | – | – | – | – | – | –
B2 | – | 7 | 7 | 7 | 7 | 7 | 7 | 3 | –
B3 | – | 7 | 7 | 7 | 7 | 7 | 6.1 | 2.1 | –
B4 | 0.03 nM | – | – | – | – | – | – | – | –
B5 | – | 7 | 7 | 7 | 7 | 6 | 4 | 1 | –
B6 | – | 7 | 7 | 7 | 7 | 7 | 4 | 1 | –
B7 | – | – | – | – | – | – | – | – | Kd [3]: 21.9 nM; kon [3]: 172000 M⁻¹ s⁻¹; EC50 [4]: 2.75 nM; EC50 [5]: 2.29 nM
B8 | 0.07 nM | – | – | – | – | – | – | – | –
B9 | 0.65 nM | – | – | – | – | – | – | – | Kd [6]: 0.65 nM
B10 | – | – | – | – | – | – | – | – | EC50 [7]: 50.1 nM; IC50 (read off the curve) [8]: ~2 µg/mL; EC50 [9]: 27.3 nM; EC50 [10]: 36.7 nM
B11 | – | – | – | – | – | – | – | – | IC50 (read off the curve) [8]: ~2 µg/mL
B12 | 8.8 nM | – | – | – | – | – | – | – | –
